Laboratory results taken from article PMC5700373, “Repression of YdaS Toxin Is Mediated by Transcriptional Repressor RacR in the Cryptic rac Prophage of Escherichia coli K-12”.

Assays:
[1] = biological target: T1, RacR (Escherichia coli K-12) (UniProt P76062); assay: EMSA; conditions: EMSA: 10x buffer 100 mM Tris pH 8, 10 mM EDTA, 1 M NaCl, 1 mM DTT, 50% glycerol, 0.1 mg/ml BSA (presumably 1x final), room temperature 1 h, SYBR green stain. …
T1 sequence: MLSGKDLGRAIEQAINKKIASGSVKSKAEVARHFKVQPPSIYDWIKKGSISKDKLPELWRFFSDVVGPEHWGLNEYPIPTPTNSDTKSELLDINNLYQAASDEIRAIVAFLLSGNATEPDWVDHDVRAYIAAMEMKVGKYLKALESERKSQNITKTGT

RacR = biological target: T2, RacR (Escherichia coli K-12, UniProt P76062 1-158); assay: EMSA; 23.5 nM DNA, RacR up to 67.5 nM; single complex; EMSA: 10x buffer 100 mM Tris pH 8, 10 mM EDTA, 1 M NaCl, 1 mM DTT, 50% glycerol, 0.1 mg/ml BSA (presumably 1x final), room temperature 1 h, SYBR green stain. TSA: 50 mM Tris pH 8.5, 500 mM NaCl, 5% glycerol, 20-95 C; conditions: protein: recombinant; tags: C-terminal His (pET28a); chain copies: 2; blunt
T2 sequence: T1 sequence

TGCTTAATATTCTCCTATGCGCATTACATTAGGCAATCCCTACCCTTACTGCATTAGGCACAGCCTATTGACAATTGCGTTAGGCGTCGCCTAATATTTCTGTGTGTTTTTGGAGTTCATTCG (double strand) [123-bp racR-ydaS IGR]
binding [1]: binds

B1: 49-bp region upstream of ydaS (dsDNA)
DNA 1: CGAATGAACTCCAAAAACACACAGAAATATTAGGCGACGCCTAACGCAA
DNA 2: TTGCGTTAGGCGTCGCCTAATATTTCTGTGTGTTTTTGGAGTTCATTCG
binding result (RacR): binds
